The values that follow come from US10864252B2, “Anti-SSX-2 T cell receptors and related materials and methods of use” (The United States of America, as represented by the …, priority 2010, dated 2020).

Assay [1] relates to melanoma (624, and 1300) and glioblastoma cell lines (U251). Briefly: IFN-γ release, co-culture with various tumor cell lines (FIG. 3). The class given is cell-based. An excerpt:
SSX-2 TCR-transduced PBLs were co-cultured with various tumor cell lines.

Another assay has as its system MCF7. Put plainly: IFN-γ release, co-culture with MCF7. The class given is cell-based. The settings on record: co-cultured with MCF7. An excerpt: (§1) SSX-2 TCR-transduced PBLs were co-cultured with various tumor cell lines. […] FIGS. 4A and 4B, FIG. 11, and Tables 3 and 4 show additional results of PBLs from human donors that were transduced with the SSX-2 TCR of Example 2 when these PBLs were co-cultured with various tumor cells.

The next assay concerns Lau 149 mel. Put plainly: IFN-γ release, co-culture with Lau 149 mel. Format: cell-based. To be noted: co-cultured with Lau 149 mel. An excerpt:
(§2) PBLs that were untransduced (UT) or transduced with a vector comprising SEQ ID NO: 27 (SSX-2 TCR), SEQ ID NO: 29 (codon-optimized SSX-2 TCR), or SEQ ID NO: 30 (codon-optimized SSX-2 TCR including mouse constant region) were co-cultured with various tumor cell lines. Tables 5 and 6 show the resulting interferon-γ levels (pg/ml) measured with respect to PBL from two different donors.

In another assay the test system is SSX-2. Briefly: Tetramer binding of transduced PBL. The settings on record: human donor-derived PBL; CD4 and CD8 cells.
The next assay relates to 938-A2 mel. Put plainly: IFN-γ release, co-culture with 938-A2 melanoma. Format: cell-based. To be noted: Table 3; co-cultured with 938-A2 (Melanoma).
Source text: as §2, with “SSX-2 TCR-transduced PBLs were co-cultured with various tumor cell lines. […] FIGS. 4A and 4B, FIG. 11, and Tables 3 and 4 show additional results of PBLs from human donors that were transduced with the SSX-2 TCR of Example 2 when these PBLs were co-cultured with various tumor cells. PBLs” for “PBLs”

The test system of another assay is 624 mel. Briefly: IFN-γ release, co-culture with 624 melanoma. The settings on record: co-cultured with 624 (Melanoma). Format: cell-based.
Source text: as §2, with “SSX-2 TCR-transduced PBLs were co-cultured with various tumor cell lines. […] FIGS. 4A and 4B, FIG. 11, and Tables 3 and 4 show additional results of PBLs from human donors that were transduced with the SSX-2 TCR of Example 2 when these PBLs were co-cultured with various tumor cells. PBLs” for “PBLs”

The test system of the next assay is SKOV3 Ovarian. Briefly: IFN-γ release, co-culture with SKOV3 ovarian. Format: cell-based. The settings on record: co-cultured with SKOV3 (Ovarian).
Source text: as §2, with “SSX-2 TCR-transduced PBLs were co-cultured with various tumor cell lines. […] FIGS. 4A and 4B, FIG. 11, and Tables 3 and 4 show additional results of PBLs from human donors that were transduced with the SSX-2 TCR of Example 2 when these PBLs were co-cultured with various tumor cells. PBLs” for “PBLs”

A further assay has as its system HEPG2. Briefly: IFN-γ release, co-culture with HEPG2. Format: cell-based. To be noted: co-cultured with HEPG2.
Source text: as §1

The next assay has as its system T331A mel. Briefly: IFN-γ release, co-culture with T331A. The class given is cell-based. To be noted: for IFN-γ: co-cultured with T331A; for interferon-γ levels: co-cultured with T331A mel.
Source text: as §2, with “SSX-2 TCR-transduced PBLs were co-cultured with various tumor cell lines. […] FIGS. 4A and 4B, FIG. 11, and Tables 3 and 4 show additional results of PBLs from human donors that were transduced with the SSX-2 TCR of Example 2 when these PBLs were co-cultured with various tumor cells. PBLs” for “PBLs”

The subject of another assay is SSX-1 to SSX-10 peptides. Put plainly: Co-culture with T2 cells pulsed with SSX family peptides. Format: cell-based. The settings on record: peptide-pulsed T2 cells; FIG. 5. On the procedure: The peptides used for pulsing were: SSX-1 (KYSEKISYV, SEQ ID NO: 32) (-♦-); SSX-2 (KASEKIFYV, SEQ ID NO: 2) (▪); SSX-3 (KVSEKIVYV, SEQ ID NO: 8) (▪); SSX-4 (KSSEKIVYV, SEQ ID NO: 9) (X); SSX-5 (KASEKIIYV, SEQ ID NO: 10) ( ? ); SSX-6 (KFSEKISCV, SEQ ID NO: 33) (•); SSX-7 (KSLEKISYV, SEQ ID NO: 34) (|); SSX-8 KYSEKISYV, SEQ ID NO: 32) (-); SSX-9 (KSSEKIIYV, SEQ ID NO: 11) (—); and SSX-10 (KASEKILYV, SEQ ID NO: 12) (--♦--).
Co-culture assays were performed with PBLs transduced with the SSX-2 TCR of Example 2 and peptide-pulsed T2 cells.

B1: SSX2-TCR-WT: HLA-A2 restricted anti-SSX-2 TCR alpha and beta chains encoded by SEQ ID NO: 27, tested as transduced human PBLs (protein)
chain: MSLSSLLKVVTASLWLGPGIAQKITQTQPGMFVQEKEAVTLDCTYDTSDPSYGLFWYKQPSSGEMIFLIYQGSYDQQNATEGRYSLNFQKARKSANLVISASQLGDSAMYFCAMTSGFGNEKLTFGTGTRLTIIPNIQNPDPAVYQLRDSKSSDKSVCLFTDFDSQTNVSQSKDSDVYITDKTVLDMRSMDFKSNSAVAWSNKSDFACANAFNNSIIPEDTFFPSPESSCDVKLVEKSFETDTNLNFQNLSVIGFRILLLKVAGFNLLMTLRLWSSRAKRSGSGATNFSLLKQAGDVEENPGPMGPGLLHWMALCLLGTGHGDAMVIQNPRYQVTQFGKPVTLSCSQTLNHNVMYWYQQKSSQAPKLLFHYYDKDFNNEADTPDNFQSRRPNTSFCFLDIRSPGLGDAAMYLCATSRGQGGQPQHFGDGTRLSILEDLNKVFPPEVAVFEPSEAEISHTQKATLVCLATGFFPDHVELSWWVNGKEVHSGVSTDPQPLKEQPALNDSRYCLSSRLRVSATFWQNPRNHFRCQVQFYGLSENDEWTQDRAKPVTQIVSAEAWGRADCGFTSVSYQQGVLSATILYEILLGKATLYAVLVSALVLMAMVKRKDF
On to B1, for which, in assay [1], the “recognition of tumor cell lines (IFN-γ)” value is “recognized naturally processed and presented SSX-2 protein in both melanoma (624, and 1300) and glioblastoma cell lines (U251)”. Besides, the IFN-γ in the assay with MCF7 (Table 3) came to 0 pg/mL; in the assay on MCF7 (Table 4) it was 3 pg/mL; in the assay with 938-A2 mel, 19320 pg/mL; in the assay with 624 mel (Table 3), 26515 pg/mL; in the assay with 624 mel (Table 4) it was 21730 pg/mL; in the assay with SKOV3 Ovarian (Table 3), 663 pg/mL. Further, the IFN-γ in the assay on SKOV3 Ovarian (Table 4) came out at 610 pg/mL; in the assay with HEPG2 (Table 3), 25 pg/mL; in the assay on HEPG2 (Table 4), 61 pg/mL; with T331A mel (Table 3), 0 pg/mL; in the assay with T331A mel (Table 4), 42 pg/mL. The interferon-γ levels is 285 pg/mL in the assay with Lau 149 mel (Table 5 donor), 125 pg/mL in the assay with Lau 149 mel (Table 6 donor), 30 pg/mL in the assay with T331A mel (Table 5 donor) and 58 pg/mL in the assay on T331A mel (Table 6 donor). Moreover, the tetramer binding result with SSX-2 is recorded as “tetramer binding”. Further, the “reactivity with SSX family peptides” value in the assay on SSX-1 to SSX-10 peptides was “most reactive with the peptide of SSX-2 and also recognizes the peptides of SSX-3, -4, -5, -9, and -10 over the other SSX peptides”.
